Results reported in the supplement of paper PMC9170038.

Columns and labels:
MS2 coat protein [1] = test: apparent KD of MS2 coat protein; designed switch direction (-1 OFF switch, 1 ON switch): 1; higher = weaker reporter binding; conditions: Eterna round: R98
Method: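 RNA-MaP: designed FMN/MS2 RNA switches (84 nt design region) are transcribed on-chip within common flanks and titrated with SNAP-549-labelled MS2 coat protein (about 1-3000 nM) in 100 mM Tris pH 7.5, 80 mM KCl, 4 mM MgCl2, without or with 200 uM FMN. Median apparent KD per design; activation ratio = KD,OFF / KD,ON.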

MS2 coat protein [2] = test: apparent KD of MS2 coat protein, switch OFF state (with FMN for OFF switches, without FMN for ON switches); designed switch direction (-1 OFF switch, 1 ON switch): 1; higher = weaker reporter binding; conditions: FMN input: 0 or 200 uM; Eterna round: R93 (includes R88 designs)
How it was run: (§1)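 Designed RNA switches were transcribed on-chip from Illumina sequencing clusters. They were then titrated with SNAP-549-labelled MS2 coat protein (twofold steps, 0.7 or 1.5 nM to 3 µM; 0.8–1.5 h to 10–20 min per step) in 100 mM Tris-HCl pH 7.5, 80 mM KCl, 4 mM MgCl2, without or with constant ligand. Apparent KD is the per-design median of normalised cluster binding-curve fits.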

MS2 coat protein [3] = test: apparent KD of MS2 coat protein, switch ON state; designed switch direction (-1 OFF switch, 1 ON switch): 1; higher = weaker reporter binding; conditions: FMN input: 0 or 200 uM; Eterna round: R93 (includes R88 designs)
How it was run: as §1

Sequence | apparent KD of MS2 coat protein (MS2 coat protein [1]; input ligand: FMN 200 uM) [µM] | apparent KD of MS2 coat protein (MS2 coat protein [1]; input ligand: none) [µM] | apparent KD of MS2 coat protein (MS2 coat protein [2]) [µM] | apparent KD of MS2 coat protein (MS2 coat protein [3]) [µM]
UUACGUCCCGUUUACAUGAGGAUCACCCAUGUCGAAAGAACCGAGGAUAUGCUACCUAGUUGGUAGCAGAAGGCGGAAACGUCG [salish99_SSNG3_r02_008] | 0.0423 | 0.0259 |  | 
GCAGAAGGUGCAGAGGAUCACCCUGUAAGGAUAUGCAUUAGCAAGGAUAUACAGAGGAUCACCCUGUAGAAGGUGCACUACUCU [pwkr2 ssNG3 DX.2] | 0.42 | 2.07 |  | 
GGUCGUCACAUCUACAUGAGGAUCACCCAUGUCGAAAGACAUGAGGAUAUGCAUCCUAAUUGGAUGCAGAAGGCAUGGACGACC [Mat - Same State NG 3 - JL Mod - D22] | 0.0651 | 1.92 |  | 
GCUGCUAUCGCAGGAUAUUACAUGGGAAAGAAUACAUGAGGAUCACCCAUGUAAAAGAUCAUAAAUAAGAAGGGCGAUAGCAGC [Lame State 6 - Jieux - Same State NG 2] | 0.159 | 0.774 |  | 
CACACAUGAGGAUCACCCAUGUCGUGGGCGGAAAACUGUGCACAGGAUAUGGUGAGGGCAACUCACCAGAAGGGUGGUCAGGAA [Zaenen] | 0.0631 | 0.1 |  | 
AGAACAUGAGGAUCACCCAUGUUAAGGUCGGUAAAUAAGGGUGAGGAUAUGCUUAAAAUAAGGUAGCAGAAGGUGCUUGGUGCA [SameState #76 NG3] | 0.146 | 0.163 |  | 
CACGUCCACACAGGAUAUGCUGGACUUUGUCCAGCAGAAGGGUGACAACAUGAGGAUCACCCAUGUAGGACGUGUAUAUUUAAG [Mat - Same State NG 1 - Eli mod - D100] | 0.188 | 2.09 |  | 
UCACUCACGUUAGGAUAUGGAUCGGAAAACGAUCCAGAAGGAACCUGCAAACCUGAGGAUCACCCAGGUUCCAAUAACGAGUGA [SameSame 7 - Jieux - Same State NG 1] | 0.259 | 0.368 |  | 
GCGGGCCUCACAGGAUAUCUGGUCCCGACAUGAGGAUCACCCAUGUAGGGCAGCUUAAGAAUGCCAGAGAAGGGUGACCAAUAU [Xexemaeron] | 0.102 | 0.315 |  | 
GCUGUCGCAUGAGGAUAUGGUCAGCUUUGCUGACCAGAAGGCAUGUCGAUAGACAUGAGGAUCACCCAUGUAGUAAAGACAGCA [jl-sng1-2.08 jl mod] | 0.0666 | 0.693 |  | 
UGUUUGAGCAUAGGAUAUACUGGGAAGGUCCACAUGAGGAUCACCCAUGUAGAGGCUGUUAGACAGUAGAAGGGUGAUCCGAUA [Zariatbege] | 0.41 | 0.00994 |  | 
CGUGUGGCAUGAGGAUAUGGUCAGCUUUGCUGACCAGAAGGCAUGUCAAUAGACAUGAGGAUCACCCAUGUAGUUAACACACGA [Mat - Same State NG 1 - JL Mod - D23] | 0.044 | 0.575 |  | 
CACACAUGGUGAGGAUAUGCAAAGGAUCACCUUGUAGAAGGCAUCAGGGUAGAAGGUGCAAGGAUCACCUGUAAGGAUAUAUCC [pwkr2 ssNG1 DX.24] | 0.395 | 1.21 |  | 
AAAACAUGAGGAUCACCCAUGUAAAGAACGGUUAAUAAAAGUGAGGAUAUACAAAAUUUUAUAUAGUAGAAGGCACUGGGUACA [JR_SSNG3_Sub008] | 0.0239 | 0.0206 |  | 
CGGAUGCAAAUAAAACAUGAGGAUCACCCAUGUGAGUCUCAUGAGGAUAUGCAGGUCAAAGACUUGCAGAAGGCAUGGCGUCCG [Mat - Same State NG 3 - JL Mod - D71] | 0.107 | 1.84 |  | 
GGAAAUAAAAGAGAGGAUAUCCAAAAGGAAACAUGAGGAUCACCCAUGUAAAAGAAAGGAAAAUGGGAGAAGGCUCAAAAUAAAG [salish99-ss2-004] |  |  | 0.0561 | 0.0442
GGAAAUAACAGAGAGGAUAUCCAAAGGAAAACAUGAGGAUCACCCAUGUAAAAGGAAGGAAAUUGGGAGAAGGCUCAAAAUAAUC [salish99-ss2-017] |  |  | 0.0243 | 0.0239
AAUAUAUUAAGUGAGGAUAUCAAGAAAAAAACAUGAGGAUCACCCAUGUGGGAAACACAAUAGGGUGAGAAGGUACUUAAUAUAU [Samwise Clockwise 18 - Jieux - Same State 2] |  |  | 0.00808 | 10.2
GAAAAACAUGAGGAUCACCCAUGUAGAAAUAUGGGAGGAUAUACAAAGUGGAAAGACAAAGUAGAAGGCCUAAAAG [Garnet 25] |  |  | 0.309 | 0.0356
AAUAGACAUGAGGAUCACCCAUGUAGAAUUAUGGGAGGAUAUACAAAGACGAGAGUCAGAGUAGAAGGCCUAGGAC [salish99-ss1-151] |  |  | 0.054 | 0.0207

Sequence | apparent KD of MS2 coat protein (MS2 coat protein [1]; input ligand: FMN 200 uM) [µM] | apparent KD of MS2 coat protein (MS2 coat protein [1]; input ligand: none) [µM] | apparent KD of MS2 coat protein (MS2 coat protein [2]) [µM] | apparent KD of MS2 coat protein (MS2 coat protein [3]) [µM]
AACGUGACGACAUAGGAUAUGUACACACGUACAUGAGGAUCACCCAUGUGACUAGUAAUCGUGUGGCAGAAGGGUGAAGUCUCGA [Anzasousra] |  |  | 0.0314 | 0.0214
GAAGACAUAGUUCAGGAUAUAGGAAUAGUCACAUGAGGAUCACCCAUGUGCAUUUAUAUGCGCGCUUAGAAGGGAGGUAGUUAUA [SameState2 Malc#21] |  |  | 0.0239 | 0.0242
GAAAAACAUGAGGAUCACCCAUGUAGAAAUAUGGGAGGAUAUACAAAGACGAAAGUCAAAGUAGAAGGCCCAAAAG [Starry Same State 1.1 (mat747 round 1 mod)] |  |  | 0.0388 | 0.0241
AAAAAACAUGAGGAUCACCCAUGUGAAAAAAUCGCAGGAUAUCCCUUUUUUAAAUGGGAGGGAGAAGGGUGAAAAA [Nob's Hobby 15 - Jieux - Same State 1] |  |  | 0.0847 | 0.0403
AAAAAACAUGAGGAUCACCCAUGUAGAAACAUGGGAGGAUAUACAAAGACGAAAGUCAAAGUAGAAGGCCUAAGAA [Mat - Same State 1 - Mod - D166] |  |  | 0.0582 | 0.0818
AAGAAACAUGAGGAUCACCCAUGUAAGAUAAACACAGGAUAUGCGAAAAGAACAAAAGAAGCAGAAGGGUGAAGAA [Mat - Same State 1 - Tesla mod - D145] |  |  | 0.0424 | 0.0254
AAUAACUAUAACUAGGAUAUCGGAAAUAAGACAUGAGGAUCACCCAUGUAAUAAGACAAAAUAUACGAGAAGGAGUAGGGUGAAA [JR_SS002_Sub012] |  |  | 0.0532 | 0.0612
AUAUAUAUAAGGUAGGAUAUCCAAAAGUCCACAUGAGGAUCACCCAUGUAAAGAAAGAAAAAAUGGGAGAAGGACCAUAUAUAUA [77%, More Tesla, 5] |  |  | 0.0421 | 0.0187
AGGAAACAUGAGGAUCACCCAUGUAAAAAUAUGGAAGGAUAUGGAAACACGAAAGUGAAACCAGAAGGUCCGAAAA [77%, Mat - Mod of Eli, 19] |  |  | 0.0231 | 0.0131
AUAAAAUACUGUGAGGAUAUCCAUAAUAAAACAUGAGGAUCACCCAUGUGUAGAUAAUAAUAAUGGGAGAAGGCACAUAAUAAUA [Mat - Same state - Mayanna Mod - D101] |  |  | 0.041 | 0.0157
AGGAGACAUGAGGAUCACCCAUGUGAGAAGAGGCGAGGAUAUCGAAAAAAAAAAAAAAAACGAGAAGGCGCGAGAA [salish99-SS1-002] |  |  | 0.0582 | 0.0354
AAGAAACAUGAGGAUCACCCAUGUCGAGAGAGACGAGGAUAUCUGAAUCGAUUAGAUUACGGAGAAGGCGUGAAAA [Same State 1.2 (Same State of Confusion2 - minimal change )] |  |  | 0.0304 | 0.0183
CGAAAGGAGAGAGAGGAUAUCCAAAGGAAAACAUGAGGAUCACCCAUGUAGAAGGUAGGAGAUUGGGAGAAGGCUCAAGAGAGCU [salish99-ss2-152] |  |  | 0.0326 | 0.0305
AGAAAAUAUGGGUAGGAUAUAUAAAGAGAAACAUGAGGAUCACCCAUGUAAAGACGAGAGUCAAAAUAGAAGGACUAAAGAAAGAA [Meechl MS2 SS2 2] |  |  | 0.151 | 0.0862
UGAUUGAGAUUGUAGGAUAUUGGAAAAGCCACAUGAGGAUCACCCAUGUCAAAAAAAAAAAAAAACAAGAAGGGCGGUUUUAGUUA [Same State 2] |  |  | 0.0645 | 0.0584
CAUCAUGCGCCUAAGGAUAUGUCUCACAAGACAUGAGGAUCACCCAUGUAUAAUAAAUAAAUGAUGCAGAAGGUGGAGUGCAUGC [Latibe] |  |  | 0.245 | 0.0877
GAAGACAUAGUUCAGGAUAUGGGAAUAGUCACAUGAGGAUCACCCAUGUGCAUUUAUAUGCGCGCUCAGAAGGGAGGUAGAUAAU [Mat - Same state - Malcolm Mod - D118] |  |  | 0.027 | 0.0269
GGAAGACAUGAGGAUCACCCAUGUGGGAAUAUGGGAGGAUAUACAAAGACGAGAGUCAGAGUAGAAGGCCUAGGAA [salish99-ss1-99] |  |  | 0.176 | 0.0378
AAAAAACAUGAGGAUCACCCAUGUGCAAAAUUCGCAGGAUAUUCUUCUCUUAAAUGAGAGGGAGAAGGGUGUAAAA [Nob's Hobby 24 - Jieux - Same State 1] |  |  | 0.0433 | 0.0182
